Laboratory results from publication PMC5027585, “TSPO ligands stimulate ZnPPIX transport and ROS accumulation leading to the inhibition of P. falciparum growth in human blood” (Scientific Reports, 2016).
Values joined by “and” are separate entries in the source; they are usually repeats but may differ in a detail not shown here. Identical values can stand only once.

Biological target: the molecule itself
Assay: SDS-PAGE and immunoblot (SDS-resistant forms); ghosts of healthy and infected RBCs in 5P8 buffer, solubilised in 1% Triton X-100, denaturing SDS-PAGE, immunoblot; oligomeric state read from the size of the bands

B1: TranSlocator PrOtein 2 (TSPO2) (natural protein, human (endogenous in red blood cells), UniProt Q5TGU0 1-170, looked up)
chain: MRLQGAIFVLLPHLGPILVWLFTRDHMSGWCEGPRMLSWCPFYKVLLLVQTAIYSVVGYASYLVWKDLGGGLGWPLALPLGLYAVQLTISWTVLVLFFTVHNPGLALLHLLLLYGLVVSTALIWHPINKLAALLLLPYLAWLTVTSALTYHLWRDSLCPVHQPQPTEKSD
notes: TSPO2, human, second TSPO isoform, endogenous in mature red blood cells; detected with a rabbit antibody against the 13 C-terminal residues of hTSPO2; also called hTSPO2; source: endogenous, human red blood cell membranes (ghosts) or Triton X-100 lysate of healthy and P. falciparum-infected RBCs
  stoichiometry N: 4 and 2
